B1: eGFP-GGSG-Flag-RBM20-WT [human] / Transportin-3 [human (endogenous in HeLa)] (parent complex)
chain 1: MVLAAAMSQDADPSGPEQPDRVACSVPGARASPAPSGPRGMQQPPPPPQPPPPPQAGLPQIIQNAAKLLDKNPFSVSNPNPLLPSPASLQLAQLQAQLTLHRLKLAQTAVTNNTAAATVLNQVLSKVAMSQPLFNQLRHPSVITGPHGHAGVPQHAAAIPSTRFPSNAIAFSPPSQTRGPGPSMNLPNQPPSAMVMHPFTGVMPQTPGQPAVILGIGKTGPAPATAGFYEYGKASSGQTYGPETDGQPGFLPSSASTSGSVTYEGHYSHTGQDGQAAFSKDFYGPNSQGSHVASGFPAEQAGGLKSEVGPLLQGTNSQWESPHGFSGQSKPDLTAGPMWPPPHNQPYELYDPEEPTSDRTPPSFGGRLNNSKQGFIGAGRRAKEDQALLSVRPLQAHELNDFHGVAPLHLPHICSICDKKVFDLKDWELHVKGKLHAQKCLVFSENAGIRCILGSAEGTLCASPNSTAVYNPAGNEDYASNLGTSYVPIPARSFTQSSPTFPLASVGTTFAQRKGAGRVVHICNLPEGSCTENDVINLGLPFGKVTNYILMKSTNQAFLEMAYTEAAQAMVQYYQEKSAVINGEKLLIRMSKRYKELQLKKPGKAVAAIIQDIHSQRERDMFREADRYGPERPRSRSPVSRSLSPRSHTPSFTSCSSSHSPPGPSRADWGNGRDSWEHSPYARREEERDPAPWRDNGDDKRDRMDPWAHDRKHHPRQLDKAELDERPEGGRPHREKYPRSGSPNLPHSVSSYKSREDGYYRKEPKAKSDKYLKQQQDAPGRSRRKDEARLRESRHPHPDDSGKEDGLGPKVTRAPEGAKAKQNEKNKTKRTDRDQEGADDRKENTMAENEAGKEEQEGMEESPQSVGRQEKEAEFSDPENTRTKKEQDWESESEAEGESWYPTNMEELVTVDEVGEEEDFIVEPDIPELEEIVPIDQKDKICPETCLCVTTTLDLDLAQDFPKEGVKAVGNGAAEISLKSPRELPSASTSCPSDMDVEMPGLNLDAERKPAESETGLSLEDSDCYEKEAKGVESSDVHPAPTVQQMSSPKPAEERARQPSPFVDDCKTRGTPEDGACEGSPLEEKASPPIETDLQNQACQEVLTPENSRYVEMKSLEVRSPEYTEVELKQPLSLPSWEPEDVFSELSIPLGVEFVVPRTGFYCKLCGLFYTSEETAKMSHCRSAVHYRNLQKYLSQLAEEGLKETEGADSPRPEDSGIVPRFERKKL
chain 2: MEGAKPTLQLVYQAVQALYHDPDPSGKERASFWLGELQRSVHAWEISDQLLQIRQDVESCYFAAQTMKMKIQTSFYELPTDSHASLRDSLLTHIQNLKDLSPVIVTQLALAIADLALQMPSWKGCVQTLVEKYSNDVTSLPFLLEILTVLPEEVHSRSLRIGANRRTEIIEDLAFYSSTVVSLLMTCVEKAGTDEKMLMKVFRCLGSWFNLGVLDSNFMANNKLLALLFEVLQQDKTSSNLHEAASDCVCSALYAIENVETNLPLAMQLFQGVLTLETAYHMAVAREDLDKVLNYCRIFTELCETFLEKIVCTPGQGLGDLRTLELLLICAGHPQYEVVEISFNFWYRLGEHLYKTNDEVIHGIFKAYIQRLLHALARHCQLEPDHEGVPEETDDFGEFRMRVSDLVKDLIFLIGSMECFAQLYSTLKEGNPPWEVTEAVLFIMAAIAKSVDPENNPTLVEVLEGVVRLPETVHTAVRYTSIELVGEMSEVVDRNPQFLDPVLGYLMKGLCEKPLASAAAKAIHNICSVCRDHMAQHFNGLLEIARSLDSFLLSPEAAVGLLKGTALVLARLPLDKITECLSELCSVQVMALKKLLSQEPSNGISSDPTVFLDRLAVIFRHTNPIVENGQTHPCQKVIQEIWPVLSETLNKHRADNRIVERCCRCLRFAVRCVGKGSAALLQPLVTQMVNVYHVHQHSCFLYLGSILVDEYGMEEGCRQGLLDMLQALCIPTFQLLEQQNGLQNHPDTVDDLFRLATRFIQRSPVTLLRSQVVIPILQWAIASTTLDHRDANCSVMRFLRDLIHTGVANDHEEDFELRKELIGQVMNQLGQQLVSQLLHTCCFCLPPYTLPDVAEVLWEIMQVDRPTFCRWLENSLKGLPKETTVGAVTVTHKQLTDFHKQVTSAEECKQVCWALRDFTRLFR

Variants of: B1
Experiment: co-immunoprecipitation, mass spectrometry; cytoplasmic fractions, HeLa; normalized to Neg; n = 3; parent: 1.7; read off a plot

Row | screen value | Variant
1 | ~0.9 | chain 1 R634Q
2 | ~0.3 | chain 1 R634Q, chain 1 S635E, chain 1 S637E
3 | ~1.5 | chain 1 P633L

Variants of: B1
Experiment: co-immunoprecipitation, western blot quantification; HeLa cells expressing eGFP-RBM20, cytoplasmic fraction; n = 3; parent: 3.3; read off a plot

Row | response [relative HRP signal] | Variant
4 | ~1.6 | chain 1 R634Q
5 | ~1.2 | chain 1 R634Q, chain 1 S635E, chain 1 S637E
6 | ~2.4 | chain 1 P633L

Reference: article PMC10353998 (2023)
